Reference: US7928289B2, “Method for production of transgenic plants with increased pathogenic resistance by altering the content and/or activity of actin-depolymerising factors” (BASF Plant Science GmbH, priority 2004, dated 2011)

B1: HvADF3 (S^6A): Constitutively active variant of barley ADF3 (SEQ ID No. 2) with S6A substitution, overexpressed from vector pHvADF3-CA (protein)
chain: MANASAGAGIHDDCKLRFVELKSKRMHRFITYRLENQKEVIVDQTGQRDATYEDFTKTLPENDCRFAVFDFDFTTPEDVPKSRIFYIFWSPDTAKVRSKMTYASNEKFKRTLDGIQIEMQATDPSEISLDVIKERAH
modifications: Hordeum vulgare
B2: AtADF3: ADF3 from Arabidopsis thaliana (SEQ ID No. 11), expressed constitutively (pSUN2) or pathogen-inducibly (Lo123) in transgenic Arabidopsis plants (protein, listed as Arabidopsis thaliana)
chain: MANAASGMAVHDDCKLKFMELKTKRTHRFIIYKIEELQKQVIVEKIGEPGQTHEDLAASLPADECRYAIFDFDFVSSEGVPRSRIFFVAWSPDTARVRSKMIYASSKDRFKRELDGIQVELQATDPTEMDLDVFKSRAN

Tests used:
actin cytoskeleton = test: Phalloidine staining of the actin cytoskeleton in transfected epidermal leaf cells; type: cell-based, Hordeum vulgare; settings: BCIngridmlo5; cells labeled with dsRED
Source text: For this experiment, epidermal leaf cells from barley were transfected with a plasmid expressing dsRED (RFP) in order to label the transfected cells. In addition in some experiments, a constitutively active variant of HvADF3 bearing an S^6A amino acid substitution rendering the protein inaccessible for N-terminal phosphorylation was expressed. A corresponding mutant was described for ADF3 from maize (Smertenko et al., Plant J 14, 187-193).
As described in the above, said vectors were then used for transfecting the plants.
The dsRED vector (pUbi-RFP-Nos, FIG. 4) has a maize polyubiquitin promoter (pUbi), the coding gene for the red fluorescent protein (Discosoma sp. fluorescent protein FP583; RFP), and a nopaline synthase transcription termination sequence (NOS). The GenBank accession number for RFP is AF168419.
The experiments were conducted in BCIngridmlo5.

peroxisomes = test: Movement of GFP-labeled peroxisomes in transfected epidermal leaf cells; type: cell-based, Hordeum vulgare; settings: epidermal leaf cells from barley; co-expression with GFP having peroxisomal targeting sequence
Source text: In order to further examine the HvADF3 function in barley, the effect of the overexpression or the silencing of HvADF3 on the mobility of peroxisomes was examined. Peroxisomes are known to be moved along actin filaments (Mathur (2002) Plant Physiology, Vol. 128, 1031-1045). Herein, barley peroxisomes were visualized by co-transformation of a plasmid expressing a variant of the Green Fluorescent Protein (GFP) with a peroxisomal targeting sequence (Mathur et al., vide supra). Herein, epidermal leaf cells from barley were transfected either only with the GFP construct or together with the already mentioned mutant of HvADF3 (S^6A). The expression of said mutant corresponds to an increase of the content and the activity of ADF3.
With the aid of the PCR method, a so-called peroxisome target sequence (PTS) was fused C-terminally to the green fluorescent protein. Said sequence consists of the three amino acids serine (S), […], and leucine (L) (Jedd, G. et al. (2002) Plant Cell Physiol 43, 384-392).
The GFP peroxisome target sequence vector (pGFPTS, FIG. 6) has a maize polyubiquitin promoter (pUbi), the coding gene for the green fluorescent protein including the peroxisome target sequence (GFPTS), and a nopaline synthase transcription terminator sequence (NOS).
The overexpression of HvADF3 was performed as described in the above. […]

[1] = test system: Blumeria graminis f. sp. hordei (Bgh); test: Fungal development on epidermal leaf cells co-transfected with GUS reporter and HvADF3(S^6A); type: cell-based, Hordeum vulgare; settings: BCIngridmlo5; Bgh conidia four hours after bombardment
Experimental: Therefore, those cells were examined, which had been transfected with HvADF3 overexpression constructs.
For said experiments, epidermal leaf cells from barley were co-transfected with a plasmid for the GUS reporter together with a plasmid coding for HvADF3(S^6A), as was described in the above. Four hours after bombardment, the leaves were infected with Bgh conidia, and 22 hours after inoculation the leaves were stained with respect to GUS activity and fungal structures. FIGS. 8a and b show the fungal development in a transfected epidermal leaf cell. […] The expression of HvADF3(S^6A) corresponds to an overexpression of HvADF3. The experiments were performed in BCIngridmlo5 plants.

Peronospora parasitica = test: Infection of transgenic Arabidopsis plants with Peronospora parasitica; type: in vivo, Arabidopsis thaliana; settings: constitutive or pathogen-inducible expression
Experimental: (§1) The transformation is conducted according to the floral dip method (modified according to Clough and Bent, 1998). After being harvested, the seeds are sterilized with chlorine gas overnight and subsequently laid out on selection plates. The addition of antibiotics is conducted in dependency on the plant resistance marker. In case of pSUN2, BASTA is added; in case of Lo123, kanamycin is added. After sterilization, the seeds are laid out on the selection plates and are stored for stratification for two days at 4° C. in a cooling chamber. Subsequently, they are further observed under short-day conditions. After about 10 days, the first selection of the plants can be performed. Non-transgenic plants will lose color during selection, while transgenic plants having the corresponding resistance gene remain green. Those plants remaining green after the first selection are selected a second time under same conditions. Those plants still maintaining their color during the second selection can then be transferred to soil. The plants are selfed and the resulting T2 seed populations are subjected to phytopathological analysis. […]
5 to 8-week-old plants are sprayed with a conidia spore suspension (about 10^6 spores/ml). […] These symptoms are quantified and tested for significance.

Erysiphe cichoracearum = test: Infection of transgenic Arabidopsis plants with Erysiphe cichoracearum; type: in vivo, Arabidopsis thaliana; settings: constitutive or pathogen-inducible expression
Experimental: as §1
The biotrophic mildew fungus is cultivated on Arabidopsis thaliana plants. […] These symptoms are quantified and tested for significance.

Row | Molecule | phalloidine-stainable actin fibers in bombarded cells (actin cytoskeleton) | peroxisomal movement (peroxisomes) | fungal development in transfected cells [1] | resistance to Peronospora parasitica as compared to non-transgenic wild-type plants (Peronospora parasitica) | resistance to Erysiphe cichoracearum as compared to non-transgenic wild-type plants (Erysiphe cichoracearum)
1 | B1 | stainable actin fibers could only be detected in the neighboring cells, but not in the bombarded cells | considerably reduced | the fungus can only form very short hyphae |  | 
2 | B2 |  |  |  | significantly increased resistance | significantly increased resistance
